Measured values as given in article PMC4954776 (Nature chemical biology, 2013).
Read-outs that look alike come from different tables or passages of the source.

How the values were obtained:
AUC [1] = molecular target: the molecule itself; assay: AUC
AUC [2] = molecular target: the molecule itself; assay: AUC; remark: listed apart in the source

B1: BRAF^444-723 kinase domain with 16 solubilization mutations (domain or fragment)
chain: RDSSDDWEIPDGQITVGQRIGSGSFGTVYKGKWHGDVAVKMLNVTAPTPQQLQAFKNEVGVLRKTRHVNILLFMGYSTKPQLAIVTQWCEGSSLYHHLHASETKFEMKKLIDIARQTARGMDYLHAKSIIHRDLKSNNIFLHEDNTVKIGDFGLATVKSRWSGSHQFEQLSGSILWMAPEVIRMQDSNPYSFQSDVYAFGIVLYELMTGQLPYSNINNRDQIIEMVGRGSLSPDLSKVRSNCPKRMKRLMAECLKKKRDERPSFPRILAEIEELARELSG
B1 gave a Kd (AUC [1]) of over 25 µM and a Kd (AUC [2]) of under 0.78 µM.
